B1: 7B9-IgG1-SI (antibody, V domains shown)
VH: EVQLVESGGGVVQPGGSLRLSCAASGFTFDDYAMHWVRQAPGKGLEWVSLISGDDGSTYYADSMKGRITISRDNSKNSLYLQMNSLRTEDTAMYYCAKASYGSGSYLYNYGMDVWGQGTTVTVFS
VL: DIQLTQSPSSLSASVGDRVTITCQASQDIINYLNWYQQKPGKAPKLLIYDTSNLETGVPSRFSGSGSGTDFAFTINSLQPEDIATYYCQQFVNLPLTFGGGTKVEIK
B2: 4F10-IgG1-SI (antibody, V domains shown)
VH: QVQLQESGPGLVKPSETLSLTCTVSGGSISNYYWSWIRQPPGKGLEWIGYIYYSGSTNYNPSLKSRVNISVDTSKSQVSLKLNSVIAADTAVYYCARHEDYWYFDLWGRGTLVTVSS
VL: DIQLTQSPSSLSASIRDRVTITCRASQDINNYLAWFQQKPGKAPKSLIYAVSSLESGVPSKFSGSGSGTDFTLTISSLQPEDFATYFCQQYNSYPFTFGPGTKVEIK
B3: 3A6-IgG1-SI (antibody, V domains shown)
VH: QVQLQESGPGMVKPSETLSLTCTVSGGSISYNYWSWIRQPPGKGLEWIGYIYHSGTTKYNPSLKSRVTMSVDTSKNHFSLKLNSVTAADTAVYYCARHEDYWFFDLWGRGTLVTVSS
VL: DIQMTQSPSSLSASVGDRVTITCRASQGISNYLVWFQQKPGKAPKSLIYAASILQSGVPSKFSGSGSGTDFTLTINSLQPEDFATYYCQQYNTYPFTFGPGTKVDIK
B4: 1G7-IgG1-SI (antibody, V domains shown)
VH: QVQLVESGGGVVRPGGSLRLSCTASGFTFDDYGMTWVRQAPGKGLEWVSGINWNGGSTGYADSVKGRFTISRDNAKNSLFLQMNSLRAEDTALYYCARDQGIAVVGTHYYYYYGMDVWGQGTAVTVSS
VL: EIVLTQSPATLSLSPGERATLSCRASQSFSSYLAWYQQKPGQAPRLLIFDTSNRATGIPARFSGSGSGTDFTLTISSLEPEDFAVYYCQQRSNWPLTFGGGTKVEIK
B5: P01264-IgG1-SI (antibody, V domains shown)
VH: EVQLVESGGGLVKPGGSLRLSCAASGFTFSNAWMNWVRQAPGKGLEWVGRIKSKTDGGTTDYAAPVKGRFTISRHDSKNTLYLQMNSLKTEDTAVYYCATDPRIAVTGTDYYYGMDVWGQGTTVTVSS
VL: DIVMTQTPSFLSASVGDRVTITCRASQDISNYLNWYQQKPGKAPKLLIYDASNLETGVPSRFSGSGSGTDFTFTISSLQPEDIATYYCQQYDNLPITFGQGTRLEIK

Target: HLA-A2 on T2 cells without added peptide (human)
Experiment: flow cytometry, T2 cells without peptide, antibody 10 µg/mL

Row | Percentage of Positive Cells (%) | Binder
1 | 4.66 | B1
2 | 7.67 | B2
3 | 5.77 | B3
4 | 5.32 | B4
5 | 4.65 | B5

Target: PIGQ/HLA complex on PIGQ-pulsed T2 cells (human)
Experiment: flow cytometry, T2 cells pulsed with 25 µM PIGQ peptide, antibody 10 µg/mL

Row | Percentage of Positive Cells (%) | Binder
6 | 5.13 | B1
7 | 7.37 | B2
8 | 5.2 | B3
9 | 5.12 | B4
10 | 4.93 | B5

Target: MED13L/HLA complex on MED13L-pulsed T2 cells (human)
Experiment: flow cytometry, T2 cells pulsed with 25 µM MED13L peptide, antibody 10 µg/mL

Row | Percentage of Positive Cells (%) | Binder
11 | 7.68 | B1
12 | 13.1 | B2
13 | 5.72 | B3
14 | 5.12 | B4
15 | 5.87 | B5
